{
  "source": "paper PMC8224933",
  "about": "“Plasticity of seven-transmembrane-helix receptor heteromers in human vascular smooth muscle cells” (PLoS ONE, 2021)",
  "binders": {"B1": {"name": "α1A-adrenoceptor (receptor, human (endogenous in hVSMCs), UniProt P35348 1-466, looked up)", "chain": "MVFLSGNASDSSNCTQPPAPVNISKAILLGVILGGLILFGVLGNILVILSVACHRHLHSVTHYYIVNLAVADLLLTSTVLPFSAIFEVLGYWAFGRVFCNIWAAVDVLCCTASIMGLCIISIDRYIGVSYPLRYPTIVTQRRGLMALLCVWALSLVISIGPLFGWRQPAPEDETICQINEEPGYVLFSALGSFYLPLAIILVMYCRVYVVAKRESRGLKSGLKTDKSDSEQVTLRIHRKNAPAGGSGMASAKTKTHFSVRLLKFSREKKAAKTLGIVVGCFVLCWLPFFLVMPIGSFFPDFKPSETVFKIVFWLGYLNSCINPIIYPCSSQEFKKAFQNVLRIQCLCRKQSSKHALGYTLHPPSQAVEGQHKDMVRIPVGSRETFYRISKTDGVCEWKFFSSMPRGSARITVSKDQSSCTTARVRSKSFLQVCCCVGPSTPSLDKNHQVPTIKVHTISLSENGEEV", "notes": "α1A-adrenoceptor, endogenous in human vascular smooth muscle cells; also called α1A-AR; source: endogenous, hVSMCs (primary aortic smooth muscle cells, ATCC PCS-100-012), fixed cells"}, "B2": {"name": "α1B-adrenoceptor (receptor, human (endogenous in hVSMCs), UniProt P35368 1-520, looked up)", "chain": "MNPDLDTGHNTSAPAHWGELKNANFTGPNQTSSNSTLPQLDITRAISVGLVLGAFILFAIVGNILVILSVACNRHLRTPTNYFIVNLAMADLLLSFTVLPFSAALEVLGYWVLGRIFCDIWAAVDVLCCTASILSLCAISIDRYIGVRYSLQYPTLVTRRKAILALLSVWVLSTVISIGPLLGWKEPAPNDDKECGVTEEPFYALFSSLGSFYIPLAVILVMYCRVYIVAKRTTKNLEAGVMKEMSNSKELTLRIHSKNFHEDTLSSTKAKGHNPRSSIAVKLFKFSREKKAAKTLGIVVGMFILCWLPFFIALPLGSLFSTLKPPDAVFKVVFWLGYFNSCLNPIIYPCSSKEFKRAFVRILGCQCRGRGRRRRRRRRRLGGCAYTYRPWTRGGSLERSQSRKDSLDDSGSCLSGSQRTLPSASPSPGYLGRGAPPPVELCAFPEWKAPGALLSLPAPEPPGRRGRHDSGPLFTFKLLTEPESPGTDGGASNGGCEAAADVANGQPGFKSNMPLAPGQF", "notes": "α1B-adrenoceptor, endogenous in human vascular smooth muscle cells; also called α1B-AR; source: endogenous, hVSMCs (primary aortic smooth muscle cells, ATCC PCS-100-012), fixed cells"}},
  "assay_in_all_cases": "proximity ligation; Duolink II PLA on hVSMCs fixed with 4% paraformaldehyde; two primary antibodies from differing species (1:500, 37°C, 105 min); control: omission of one primary antibody; PLA signals per cell counted; cells untreated or incubated 72 h with non-targeting, CXCR4, ACKR3 or AVPR1A siRNA",
  "settings_in_all_cases": "partners not purified",
  "key": {"α1B-adrenoceptor": {"molecular_target": "B2"}, "α1A-adrenoceptor": {"molecular_target": "B1"}, "α1D-adrenoceptor": {"molecular_target": "T1, α1D-adrenoceptor (human (endogenous in hVSMCs), UniProt P25100 1-572)", "T1 construct": "α1D-adrenoceptor, endogenous in human vascular smooth muscle cells; also called α1D-AR; source: endogenous, hVSMCs (primary aortic smooth muscle cells, ATCC PCS-100-012), fixed cells", "T1 sequence (looked up)": "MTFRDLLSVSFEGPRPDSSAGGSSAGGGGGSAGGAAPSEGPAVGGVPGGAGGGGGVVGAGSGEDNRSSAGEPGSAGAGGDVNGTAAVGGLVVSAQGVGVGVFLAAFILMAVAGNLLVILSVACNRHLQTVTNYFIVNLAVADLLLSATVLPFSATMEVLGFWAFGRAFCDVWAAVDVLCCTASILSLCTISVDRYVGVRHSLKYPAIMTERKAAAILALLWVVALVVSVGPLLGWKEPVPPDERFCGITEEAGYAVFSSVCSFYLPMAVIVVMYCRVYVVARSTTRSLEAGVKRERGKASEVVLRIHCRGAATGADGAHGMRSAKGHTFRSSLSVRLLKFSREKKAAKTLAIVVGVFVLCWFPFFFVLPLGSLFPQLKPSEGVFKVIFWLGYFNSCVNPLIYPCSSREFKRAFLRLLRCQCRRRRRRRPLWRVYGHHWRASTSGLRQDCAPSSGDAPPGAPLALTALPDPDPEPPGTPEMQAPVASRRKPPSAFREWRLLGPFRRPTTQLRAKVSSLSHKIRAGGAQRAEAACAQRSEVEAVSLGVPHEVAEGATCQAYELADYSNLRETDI"}},
  "data": [
    {"binder": "chemokine (C-X-C motif) receptor 4 (receptor, human (endogenous in hVSMCs), UniProt P61073 1-352, looked up, chemokine (C-X-C motif) receptor 4 (CXCR4), endogenous in human vascular smooth muscle cells; also called CXCR4; source: endogenous, hVSMCs (primary aortic smooth muscle cells, ATCC PCS-100-012), fixed cells) MEGISIYTSDNYTEEMGSGDYDSMKEPCFREENANFNKIFLPTIYSIIFLTGIVGNGLVILVMGYQKKLRSMTDKYRLHLSVADLLFVITLPFWAVDAVANWYFGNFLCKAVHVIYTVNLYSSVLILAFISLDRYLAIVHATNSQRPRKLLAEKVVYVGVWIPALLLTIPDFIFANVSEADDRYICDRFYPNDLWVVVFQFQHIMVGLILPGIVILSCYCIIISKLSHSKGHQKRKALKTTVILILAFFACWLPYYIGISIDSFILLEIIKQGCEFENTVHKWISITEALAFFHCCLNPILYAFLGAKFKTSAQHALTSVSRGSSLKILSKGKRGGHSSVSTESESSSFHSS", "values": [
      {"measurement": "PLA signals after AVPR1A siRNA, % of NT siRNA", "setting": "α1B-adrenoceptor", "result": 72, "unit": "%"},
      {"measurement": "PLA signals after AVPR1A siRNA, % of NT siRNA", "setting": "α1A-adrenoceptor", "result": 91, "unit": "%"}
    ]},
    {"binder": "B1", "values": [
      {"measurement": "PLA signals after AVPR1A siRNA, % of NT siRNA", "setting": "α1B-adrenoceptor", "result": 101, "unit": "%"}
    ]},
    {"binder": "B2", "values": [
      {"measurement": "PLA signals after AVPR1A siRNA, % of NT siRNA", "setting": "α1D-adrenoceptor", "result": 141, "unit": "%"}
    ]}
  ]
}
